The nanobody polyreactivity screen of Harvey et al. (2022)

Test: yeast display, Sf9 membrane polyspecificity reagent, FACS + sequencing; frameworks hold sequencing errors
Outline: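 After 36–48 hours of galactose induction, yeast (Saccharomyces cerevisiae BJ5465) displaying a synthetic nanobody library were stained at 4 °C for 1 hour with 10% biotinylated, detergent-solubilized Sf9 membrane reagent. Streptavidin microbeads enriched the stained cells before FACS sorting into low and high (top ~1%) gates on anti-HA and streptavidin fluorescence. Each clone's polyreactivity label reflects its gate of origin.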

Sequence	polyreactivity (PSR sort gate)
QVQLVESGGGLFQEGGSLRLSCAASGFTFLYYDMGWYRQAPGKERELVAAINSSGGGTYYADSVKGRFTISRDNAKNTVYLQMNSLKPEDTAVYYCAVSWSDGYDYWGQGTQVTVSS	high polyreactivity
QVQLVESGGGLVHAGGSLRVSCAASGFTFYLYTMGWYRQAPGTERELVAAINYSGGRTYYADSVKGRFTISRDYAKNSVYLQMNSLKPEDTAVYYCYPRVKNLQAYDYWGQGTQVTVSS	high polyreactivity
QVQLVESGGGLVQAGGSLRLSCAASGFIFRNYAMGWYRQAPGKERELVAAITGRGTYTYYADSVKGRFTISRDNAKNTVYLQMNSLKPEDTAVYYCAARSLALVYRKYDYWGQGTQVTVSS	high polyreactivity
QVQLVESGGGLVQAGGSLRLSCAASGSIFERYSMGWYRQATGKERELFATISKSGDSKYYADSVKGRFTISRDNAKNTVYFQMNRLKPEDTAVYYCSADGWYETSDATFYYWGQGTQVNVSS	low polyreactivity
QVQLVESGGGLVQAGGSLRLSCAASGRIFTIYAMGLYRQEPGKERELVASITWRGGRTYYADSVKGRFTISRDNAKNTVYLQMNSLKPEDTAVYYCAAEFYRWGSLSFSYDYWGQGTQVTVSS	low polyreactivity
QVQLVESGGGLVQAGGSLRLSCAASGLIFWAYAMGWYRQAPGKERELVAAINSGGRTYYADSVKGRFTISRDNAKNTVYLQMNSLKPEDTAVYYCAAAGVYSSDYWGQGTQVTVSS	low polyreactivity
QVQLVESGGGLVQAGGSLRLSCAASGSIIVLNAMGWYRQAPGKERELVAAISSDGITYYADSVKGRFTISRDNAKNTVYLQKNSLKPEDTAVYYCAAYRVDYSDAYYYWGQGTQVTVSS	low polyreactivity
QVQLVESGGGLVQAGGSLRLSCASSGFTLYANAMGGYRQAPGKERELVADISESGSSTSYADSVKGRFTISRDNAKNTVYLQMKSLKPEDTAVYYCYDYWVQGTQVTVSS	low polyreactivity
QVQLVESGGGLVQAGGSLRLSCAASGRTFWDYGMGWYRQAPGKERELVATISGNGGDTYYADSVKGRFTISRDNAKNTVYLQMNSLKPEDTAVYYCAAAWPSTGLLYVLGYSGYGYWGQGTQVTVSS	low polyreactivity
QVQLVESGGGIVQEGGSLRLSCAASGSTFDQNGMGGYRQAPGKERELVATISTSAGTYYADSVKGRFTISRDNAKNTVYLQMNSLKPEDTAVYYCNADLGGQYKEFDYWGQGTQVTVSS	low polyreactivity
QVQLVESGGCLVQAGGSLRLSCSASGRIFNTYAMGWYRQAPGKERDLVARISSGGTTYYADSVKGRFTISRDNAKNTVYLQMNSLKPEDTAVYYCNVRAVTPTRSRPFRYDYWGQGTQVTVSS	high polyreactivity
QVQLVESGGGLVQAGGSLRLSCAASGIIFASNAMGWYRQTPGKERELVAAISGSGGRTYYADSVKGRFTISRDNAKNTVYLQMNSLKPDDTAVYYGAAARANNYDYWGQGTQVTVSS	high polyreactivity
QVQLVESGGGLVQAGGSLRLSCAASGFIFGYYAMGWYRQAPGKERELVAAISSRGGSTYYADSVKGRFTISRDNAKNTVYLQMNSLKPEDTAVYYCAVRRVSFRHKFGQYDYWGQGTQVTVSA	high polyreactivity
QVHLVESGGGLVQAGGSLRLSSADSGRIFTTYVMGWYRQAPGQESELVAAISARGSTYYADSVKGRFTISRDNAKNTVYLQMNSLKPEDNAVYYCAAGHRLPVYYVYPRATYNYWRQGTQVTVSS	low polyreactivity
QVQLVESAGGLVQAGGSLRLSCAASGRTFGRKAMVWSRQAPGERELGAVISRGGSTYYADTVKGRFTISRDNAKNTVYLQMNILKPEDTAVYYCNADTVYTRTGPYDYWGQGTQVTVSS	low polyreactivity
QVQLVESCGGLVQAGASLRLSCAASGRTFSENAMGWYRQARGKEREFVAGNSFSGDGRTYYADSVKGRFTISRDNAKNTVYLQMNSLKPEDTAVYYCAAPHRSRTHELDYWGQGTQVTVSS	low polyreactivity
QVQLLESGGGLVQAGGSLRLSCAASGSTFGFYAMGCYRPAPGKERELVAAISKSGDITYYADSVKGRFTNSLDNAKNTVYLQMNSLKPEDTAVYYCADRYGYLDNSIYVYWGQGTQVTVSS	high polyreactivity
QVQLVESGGGLVQAGGSLRLSCAASGSTFFYYTMGWYIQAPGKERELVADITRGGGTTYYADSVKGRFTISRDNAKNTVYLQMNSLKPEDTAVYYCNAPYPNARYWTGWGYYYWGQGTQVTVSS	high polyreactivity
QVQLEESGGGLVQAGGSLRLSCAASGSTIPRNAMGWYRQAPGKERELVAAITSGGSTNYADSVKGRFTISRDNAKNTVYLQMNSLKPEDTSVYYCAADEQVNTQYVVWGDYWGQGTQVTVSS	low polyreactivity
QVQLVESGGGLVQAGGSLRLSCAASGGIFWYYAMGWYRQAPGKERELVAAINSGGSTYYADSVKGRFTISRDNAKNTVYLQMNSLNPEDTAVYYCNTRYPFSRYDYWGQGTQVTVSS	low polyreactivity
QVQLVESGGGLVQAGGSLRLSCAASGFIFSLYAMGWYRQAPGKERELVAAISRSDDRTYYADSVKGRFTISRDDAKNTVYLQMNSLKPEDTAVYYCNVRYSYILIYEYWGQGTQVTVSS	low polyreactivity
QVQLVESGGGLVQAGGSLRLSCAASGSIFYQNAMGWYRQAPGKERELVAAITSDGSTYYADSVKGRFTISRDNAKNTVYLQMNSLKPEDTAVYYCAAEYYGHRYDYWGQGTQVTVSS	low polyreactivity

Sequence	polyreactivity (PSR sort gate)
QVQLVESGAGLVQEVGSLRLSCAASGFTFGVNAMGSSRQAPGKERQFVASIRVRGCSTYYADSEKGRFTISRDNAKNTVYLQMNSLKPEDTAVYFCNAEVYVSSYATEMDYWGQGTQVTVSS	low polyreactivity
QVQLVESGGGLVQAGGSLRLSCAASGSTFQVYGMGWYRQAPGKERELVAAISRSGGRTYYADSVKGRFTISRDNAKNTVYLQMNSLKPEDTAVYYCAKTYQTTTSKSGYYYWGQGTQVTVSS	high polyreactivity
QVQLVESGGGLVQAGGSLRLSCAASGSTFEGYAMGWYRQAPGKERELVAVISSGSITKYADSVKGRFTISRDNAKNTVYLQMNSLKPEDTAVYYCARKGGIIFASYLLGGYWGQGTQVTVSS	low polyreactivity
QVQLVESGGGLVQAGGSLRLSCAASGNIFSVYAMGWYRQAPGKERELVAAISSSGGRTYYADSVKGRFTISRDNAKNTVYLQMNSLKPEDTAVYYCNTAGYDYYSTQAYDYWGQGTQVTVSS	high polyreactivity
QEHLVESGGGLVQAGGSLRLSCAAYGSIFVSYAMGWYRQAPGKERELVAAISWSGGSTYYADSVKGRFTISRDNAKNTVYLQMNSLKPEDTAVYYCNGVPSEGFDWGQGTQVTVSS	low polyreactivity
QFQLVESGVGLVQAGGSLRLSCAASVRIFITNAMGWYRQAPGKERELVAAISGGSTYYGDSVKGRFTISRDNAKNTVYLQMNSLKPEDTAVYYCAVDNYYTPWYPYLGYDSWGQGTQVTVSS	low polyreactivity
QVQLVESGGGLVQARGSLRLSCASSGITLYFNTMGCYRQPPGKESELVASISGGSSTYYADSVKGRFTISRDNAKNTVYLQMNSLKPEDTAVYYCNAQGSLFRGWFDYDYWGLGTQVTVSS	low polyreactivity
QVQLVESGGGLVQAGGSLRLSCAASGFIFWVYAMGWYIQAPGKERELVAAITSGGGSTYYADSVKGRFTISRDNAKNTVYIQMNSLKPDDTAVYYCATRIRTVAYNYWGQGTQVTVSS	high polyreactivity
QDQLVESGGGIVQAGGSLRLSCAASGRIFYGYAMGWYRQAPGKERELVAAITSRGTSTYYADSVKGRFTISRDNAKNTVYLQMNSLKPEDTAVFYCNAAYGRSFYSKVFSYNYWGQGTQVTVSS	high polyreactivity
QVQLVESGGGLVQAGCSLRISCAASGSTFYINAMGWYRQAPGKERELVAAISRGGSTYYADSVKGRFTISRDNAKNTVYLQMNSLKPEDTAVYYCAADFSRSYRFNYWGQGTQVTVSS	high polyreactivity
QVQHVESGGGLVQAGGSLRLSCAASGRTSYGNTMGWYRQAPGKERELVATISGGGSTNYADSVKGRFTISRDNAKNTVYLQMNSLKPDDTAVYYCAARRYPFPGYRYYYWGQGTQVTVSS	high polyreactivity
QVQLVESGGGLVQAGGSLRLSCAASGFTFWDYTMGWYRQAPAKERELVAAINRGGNTYYADSVKGRFTISRDNAKNTVYLQMNSLKPEDSADYYCAARRRSRQYRYDYWGQGTQVTVSS	high polyreactivity
QVQLVEAGGGLVQAGGSLRLSCGASGRIFQSNAMGGYRLAPGKERELVAAISKSGGSTYYADSVKGRFTISRDNAKNTVYLQMNSLKPEDPAVYYCAAYPPRRMYYWGQGTQVTVSS	high polyreactivity
QVQLVESGGGLVQAGGSLRLSCAASGSIFRKNAMGWYRQAPGKERELVAAISSSGGRTYYADSVKGRFTISRDNAKNTVYLQMNSLKPEDTAVYYCNTGPGQSFRYNYWGQGTQVTVSS	high polyreactivity
QVQLVESGGGLVQAGGSLPLSCAASGSTFAVYAMGWYRQAPGKERELVAAISFSGSTYADSVKGRFTISRDNAKNTVYLQMNSLKPEDTAVYYCAKEYRVFGWWYTKGDYWGQGTQVTVSS	low polyreactivity
QVQLVESGGGLVQAGGSLRLSCAASGRTIKYYAMGWYRQAPGKESELVAAISSSGGRTNYADSVKGRFTISRDNANNTVYLQMNSLKPEDTAVYYCAARFYKTYPRMNYWGQGTQVTVSS	high polyreactivity
QVQLVESGGGLVQAGGSLRLSCAASGSIFYVNAMGWYRQAPGKERELVASITASGGTTYYADSVKGRFTISRDNAKNTVYLQMNSLKPEDTAVYYCAATFIQVVVNVQLYDYDYWGQGTQVTVSS	low polyreactivity
QVQLVESGGCLVQAGGSLRLSCAASGSIFVAYAMGWYRQAPGKERELVAAITGRSGRTYYADSVKGRFTISRDNAKNTVYLQMNSLKPEDTAVYYCAARGYGTDDYDYCGQGTQVTVSS	high polyreactivity
LVQLVESGGGLVQAGGSLRLICAASGSIFSGYAMGWYRQAPGNERELVAAITRSGGRTYYADSVKGRFTISRDNAKNTVYLQMNSLKPEDTAGYYCATLPRYYGYWGQGTQVTVSS	high polyreactivity
QVQLVESGGGLVQAGGSLRLSCAASGFTFVRNALGWYRPAPGKERELVAAITDAGRTTYADSVKGRFTISRDNAKNTVYLQMNSLKPEDTAVYYCAKGKWWGWPWYSMDYWGQGTQVTVSS	low polyreactivity
QVQLVESGGGLVQAGGSLRLSCAASGRTFGYYAMGWYRQAPGKERELVAAISWSGGSTRYADSVKGRFTISRDNAKNTVYFQLNSLKPEDTAVYYCAADSWYSFAGVYRVYGEDYWGQGTQVTVSS	high polyreactivity
